{"source": "patent US20050152898A1", "about": "(BIOVATION, published 2005)", "binders": {"B1": {"name": "DIVH5/DIVK5 (antibody, human IgG1, V domains shown)", "VH": "EVQLLESGGGLVQPGGSLRLSCAGSGFTFTDFYMNWIRQPPGKAPEWLGFIRDKAKGYTTEYNPSVKGRFTISRDNSKNTLYLQMNSLRAEDTAVYYCAREGHTAAPFDYWGQGTLVTVSS", "VL": "DIQMTQSPSSLSASVGDRVTITCKASQNIDKYLNWYQQKPGKSPKLLIYNTNNLQTGVPSRFSGSGSGTDFTLTISSLQPEDIATYYCLQHISRPRTFGTGTKLELK", "notes": "also called DIVHv5/DIVKv5"}, "B2": {"name": "DIVH3/DIVK1 (antibody, human IgG1, V domains shown)", "VH": "EVKLQESGGGLVQPGGSMRISCSGSGFTFTDFYMNWIRQPPGKGPEWIGFIRDKAKGYTTEYNPSVKGRFTISRDNTQNTLHLQANTLRAEDTAVYYCAREGHTAAPFDYWGQGTTVTVSS", "VL": "B1 VL with K24R, S43A, L46S, T56S", "notes": "also called DIVHv3/DIVKv1"}, "B3": {"name": "DIVH3/DIVK4 (antibody, human IgG1, V domains shown)", "VH": "B2 VH", "VL": "B1 VL with S43A, L46S", "notes": "also called DIVHv3/DIVKv4"}, "B4": {"name": "DIVH3/DIVK5 (antibody, human IgG1, V domains shown)", "VH": "B2 VH", "VL": "B1 VL", "notes": "also called DIVHv3/DIVKv5"}}, "biological_target": "T1, CD52 human leukocyte antigen (human, UniProt P31358 25-36)", "T1 construct": "whole, on cells; also called CD52 antigen", "T1 chain (looked up)": "GQNDTSQTSSPS", "experiment": "FACS on HUT-78 cells (CD52+), FITC anti-human IgG Fc, median fluorescence, 4-parameter fit; titre = 50% of maximum binding", "description": "Human T-cell lymphoma cell line HUT-78 is CD52 positive and was used to assess binding of the modified antibodies of the present invention. In the present example, different concentrations of test antibody were incubated with the cells and the amount of bound antibody was assessed following incubation with a fluorescent-labelled reporter reagent. The reporter is measured using a fluorescence activated cell sorter (FACS).\nFor detection, the cells were incubated for 1 hour on ice with a 1:1000 dilution of FITC-labelled anti-human IgG Fc domain. This reagent is a goat anti-human IgG (Fc specific) obtained from Sigma (Poole, UK). The cells were washed as previously and re-suspended in 100 μl of PBS/2% FBS and transferred to 4 ml FACS tubes (Becton Dickinson) containing 900 μl of PBS/2% FBS/Propidium Iodide (1:1000). The cells were analysed using a conventional Becton Dickenson FACS Calibur instrument.\nThe binding of the test and control antibodies was determined using the Median Fluorescence value. The saturating concentration of antibody was determined from plots of the Median Fluorescence—Zero Antibody Median Fluorescence versus Concentration of antibody. The binding curves were fitted to a logistic 4 parameter sigmoidal equation using SigmaPlot, giving an excellent fit with 95% confidence levels.", "note": "Where a chain is given by its changes, count along the chain named."}
{"binder": "B1", "values": [{"measurement": "EC50", "value": 3, "unit": "µg/mL"}]}
{"binder": "B2", "values": [{"measurement": "EC50", "value": 9.6, "unit": "µg/mL"}]}
{"binder": "B3", "values": [{"measurement": "EC50", "value": 8.63, "unit": "µg/mL"}]}
{"binder": "B4", "values": [{"measurement": "EC50", "value": 3.3, "unit": "µg/mL"}]}
